From US20220282217A1 (BIONTECH US, published 2022)

B1: GLVDEQQEV (peptide)
peptide: GLVDEQQEV
notes: also called SF3B1, K700E
B2: ALNSEALSV (peptide)
peptide: ALNSEALSV
notes: also called TMPRSS2: ERG
B3: ALNSEALSVV (peptide)
peptide: ALNSEALSVV
notes: also called TMPRSS2: ERG
B4: GLLAFWDSQV (peptide)
peptide: GLLAFWDSQV
notes: also called TP53, AAVG
B5: VVPCEPPEV (peptide)
peptide: VVPCEPPEV
notes: also called TP53, Y220C
B6: ALSASNSCFI (peptide)
peptide: ALSASNSCFI
notes: also called FRG1B, L52S
B7: FQNGKMALS (peptide)
peptide: FQNGKMALS
notes: also called FRG1B, L52S
B8: VMAYVMAGV (peptide)
peptide: VMAYVMAGV
notes: also called HER2, G776insYVMA
B9: VIIEYCCYG (peptide)
peptide: VIIEYCCYG
notes: also called KIT, T670I
B10: IIEYCCYGDL (peptide)
peptide: IIEYCCYGDL
notes: also called KIT, T670I
B11: IIEYCFYGDL (peptide)
peptide: IIEYCFYGDL
notes: also called PDGFRa, T674I
B12: TIGGPTLVII (peptide)
peptide: TIGGPTLVII
notes: also called KIT, T670I
B13: MNIANLLGA (peptide)
peptide: MNIANLLGA
notes: also called KIT, V654A
B14: HMNIANLLGA (peptide)
peptide: HMNIANLLGA
notes: also called KIT, V654A
B15: YLGNHMNIAN (peptide)
peptide: YLGNHMNIAN
notes: also called KIT, V654A
B16: IANLLGACTI (peptide)
peptide: IANLLGACTI
notes: also called KIT, V654A
B17: VLHESNSPYI (peptide)
peptide: VLHESNSPYI
notes: also called MEK, C121S
B18: SLYIVGFYGA (peptide)
peptide: SLYIVGFYGA
notes: also called MEK, P124L
B19: SLYIVGFYG (peptide)
peptide: SLYIVGFYG
notes: also called MEK, P124L
B20: QQSDLQPPA (peptide)
peptide: QQSDLQPPA
notes: also called MYC, E39D
B21: QQQSDLQPPA (peptide)
peptide: QQQSDLQPPA
notes: also called MYC, E39D
B22: LLSTPPLSPS (peptide)
peptide: LLSTPPLSPS
notes: also called MYC, P57S
B23: FELLPIPPL (peptide)
peptide: FELLPIPPL
notes: also called MYC, T58I
B24: IMSLWGLVS (peptide)
peptide: IMSLWGLVS
notes: also called NAB: STAT6 (variant 1 of Chmielecki et al.)
B25: LLQEFDVQEA (peptide)
peptide: LLQEFDVQEA
notes: also called NDRG1: ERG
B26: LQEFDVQEAL (peptide)
peptide: LQEFDVQEAL
notes: also called NDRG1: ERG
B27: IIIEYCFYG (peptide)
peptide: IIIEYCFYG
notes: also called PDGFRa, T674I
B28: YIIIEYCFYG (peptide)
peptide: YIIIEYCFYG
notes: also called PDGFRa, T674I
B29: KITEQEKDFL (peptide)
peptide: KITEQEKDFL
notes: also called PIK3CA, E542K
B30: QTGVMICAYL (peptide)
peptide: QTGVMICAYL
notes: also called PTEN, R130Q
B31: FSGEYIPTV (peptide)
peptide: FSGEYIPTV
notes: also called RAC1, P29S
B32: AFSGEYIPTV (peptide)
peptide: AFSGEYIPTV
notes: also called RAC1, P29S
B33: KKLMLLRLNL (peptide)
peptide: KKLMLLRLNL
notes: also called SEC31A(-1)
B34: FALCGFWQI (peptide)
peptide: FALCGFWQI
notes: also called SLC35F5(-1)
B35: FVQGKDWGL (peptide)
peptide: FVQGKDWGL
notes: also called SPOP, F133L
B36: KSLVRLSSCV (peptide)
peptide: KSLVRLSSCV
notes: also called TGFBR2(-1)
B37: SLVRLSSCV (peptide)
peptide: SLVRLSSCV
notes: also called TGFBR2(-1)
B38: RLSSCVPVAL (peptide)
peptide: RLSSCVPVAL
notes: also called TGFBR2(-1)
B39: VRLSSCVPVA (peptide)
peptide: VRLSSCVPVA
notes: also called TGFBR2(-1)
B40: ALMSAMTTS (peptide)
peptide: ALMSAMTTS
notes: also called TGFBR2(-1)
B41: LVRLSSCVPV (peptide)
peptide: LVRLSSCVPV
notes: also called TGFBR2(-1)
B42: VMSDTTYKI (peptide)
peptide: VMSDTTYKI
notes: also called TTK(-1)
B43: FVMSDTTYKI (peptide)
peptide: FVMSDTTYKI
notes: also called TTK(-1)
B44: YLTKWPKFFL (peptide)
peptide: YLTKWPKFFL
notes: also called XPOT(-1)
B45: KLMLLRLNLR (peptide)
peptide: KLMLLRLNLR
notes: also called SEC31A(-1)
B46: MLLRLNLRK (peptide)
peptide: MLLRLNLRK
notes: also called SEC31A(-1)
B47: LMLLRLNLRK (peptide)
peptide: LMLLRLNLRK
notes: also called SEC31A(-1)
B48: TYTCAITTVK (peptide)
peptide: TYTCAITTVK
notes: also called SEC63 (+1)
B49: ITTVKATETK (peptide)
peptide: ITTVKATETK
notes: also called SEC63 (+1)
B50: KSKKKETFKK (peptide)
peptide: KSKKKETFKK
notes: also called SEC63 (+1)
B51: KSKKKETFK (peptide)
peptide: KSKKKETFK
notes: also called SEC63 (+1)
B52: KSRQNHLQLK (peptide)
peptide: KSRQNHLQLK
notes: also called SMAP1(-1)
B53: WSLKKVPALK (peptide)
peptide: WSLKKVPALK
notes: also called SMAP1(-1)
B54: KISNWSLKKV (peptide)
peptide: KISNWSLKKV
notes: also called SMAP1(-1)
B55: RKISNWSLKK (peptide)
peptide: RKISNWSLKK
notes: also called SMAP1(-1)
B56: HLQLKSCRRK (peptide)
peptide: HLQLKSCRRK
notes: also called SMAP1(-1)
B57: SLKKVPALKK (peptide)
peptide: SLKKVPALKK
notes: also called SMAP1(-1)
B58: RVNTAWKTK (peptide)
peptide: RVNTAWKTK
notes: also called TFAM(+1)
B59: RVNTAWKTKK (peptide)
peptide: RVNTAWKTKK
notes: also called TFAM(+1)
B60: KRVNTAWKTK (peptide)
peptide: KRVNTAWKTK
notes: also called TFAM(+1)
B61: AMTTSSSQKN (peptide)
peptide: AMTTSSSQKN
notes: also called TGFBR2(-1)
B62: KMRKKYAQK (peptide)
peptide: KMRKKYAQK
notes: also called THAP5(-1)
B63: LFVMSDTTYK (peptide)
peptide: LFVMSDTTYK
notes: also called TTK(-1)
B64: FVMSDTTYK (peptide)
peptide: FVMSDTTYK
notes: also called TTK(-1)
B65: KTFEKKGEK (peptide)
peptide: KTFEKKGEK
notes: also called TTK(-1)

molecular target: T1, HLA-A02.01 (human); assay: pMHC-I dissociation half-life, 125I-b2m
T1 construct: Purified class I MHC
Procedure: (§1) Briefly, synthetic genes encoding biotinylated MHC-I heavy and light chains are expressed in E. coli and purified from inclusion bodies using standard methods. […] These reactions are carried out in streptavidin coated microplates to bind the biotinylated MHC-I heavy chains to the surface and allow measurement of radiolabeled light chain to monitor complex formation. Dissociation is initiated by addition of higher concentrations of unlabeled light-chain and incubation at 37° C. Stability is defined as the length of time in hours it takes for half of the complexes to dissociate, as measured by scintillation counts.

| Binder | Stability (T1/2 (h)) |
| --- | --- |
| B1 | 7.4 h |
| B2 | 9.1 h |
| B3 | 2.9 h |
| B4 | 14.2 h |
| B5 | 0.9 h |

molecular target: T2, HLA class I molecule A02.01; assay: pMHC-I dissociation half-life, 125I-b2m
T2 construct: Purified MHC class I complex; also called HLA-A02:01
Procedure: as §1

| Binder | Stability (T1/2 (h)) |
| --- | --- |
| B6 | 0.8 h |
| B7 | 0 h |
| B8 | 16.5 h |
| B9 | 0.5 h |
| B10 | 0 h |
| B11 | 0 h |
| B12 | 0 h |
| B13 | 0.3 h |
| B14 | 0 h |
| B15 | 0 h |
| B16 | 0 h |
| B17 | 1.9 h |
| B18 | 0.4 h |
| B19 | 0 h |
| B20 | 0 h |
| B21 | 0 h |
| B22 | 0 h |
| B23 | 0 h |
| B24 | 0 h |
| B25 | 2.5 h |
| B26 | 0 h |
| B27 | 1.2 h |
| B28 | 0 h |
| B29 | 0 h |
| B30 | 0 h |
| B31 | 6.8 h |
| B32 | 0 h |

molecular target: T1, HLA-A02.01; assay: competition with radiolabeled reference peptide, purified MHC I
Procedure: (§2) Peptides were incubated at varying concentrations with these complexes for 2 days, and the amount of remaining radiolabeled peptide bound to […] was measured using size exclusion gel-filtration.

| Binder | IC50 |
| --- | --- |
| B33 | 289 nM |
| B1 | 44 nM |
| B34 | 0.4 nM |
| B35 | 34 nM |
| B36 | 280 nM |
| B37 | 29.9 nM |
| B38 | 54.2 nM |
| B39 | 1210 nM |
| B40 | 139 nM |
| B41 | 1240 nM |
| B2 | 14 nM |
| B4 | 10 nM |
| B42 | 19.6 nM |
| B43 | 62.4 nM |
| B44 | 42.9 nM |

molecular target: T3, HLA-A03.01 (human); assay: as above
T3 construct: Purified class I MHC
Procedure: as §2

| Binder | IC50 |
| --- | --- |
| B45 | 48.4 nM |
| B46 | 1.3 nM |
| B47 | 6 nM |
| B48 | 2360 nM |
| B49 | 1250 nM |
| B50 | 39.6 nM |
| B51 | 74.3 nM |
| B52 | 4.7 nM |
| B53 | 94.9 nM |
| B54 | 115 nM |
| B55 | 131 nM |
| B56 | 96.9 nM |
| B57 | 9.6 nM |
| B58 | 8.6 nM |
| B59 | 2.3 nM |
| B60 | 332 nM |
| B61 | 2340 nM |
| B62 | 5.7 nM |
| B63 | 749 nM |
| B64 | 66.9 nM |
| B65 | 32.2 nM |

molecular target: T2, HLA class I molecule A02.01; assay: competition with radiolabeled reference peptide on purified MHC I
Procedure: as §2

| Binder | IC50 |
| --- | --- |
| B6 | 226 nM |
| B7 | 3280 nM |
| B8 | 2 nM |
| B9 | 191 nM |
| B10 | 7310 nM |
| B11 | 1090 nM |
| B12 | 10700 nM |
| B13 | 128 nM |
| B14 | 430 nM |
| B15 | 1340 nM |
| B16 | 6420 nM |
| B17 | 131 nM |
| B18 | 390 nM |
| B19 | 1060 nM |
| B20 | 70 nM |
| B21 | 646 nM |
| B22 | 1770 nM |
| B23 | 553 nM |
| B24 | 7320 nM |
| B25 | 45 nM |
| B26 | 50300 nM |
| B27 | 16 nM |
| B28 | 113 nM |
| B29 | 1400 nM |
| B30 | 9760 nM |
| B31 | 3 nM |
| B32 | 781 nM |
